This is an account of results in the supplement of paper PMC10567573.

Sequences and labels used below:
B1: SOAT2 (parent)
chain: SLGKQKVFIIRKSLLDELMEVQHF
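Further: lentivirally expressed fusions sorted by FACS into six bins by GFP to DsRed ratio, PSI derived from sequencing read proportions per bin multiplied by bin number.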

The variants in this series derive from B1. In words: protein stability index of a GFP-peptide fusion (GPS, HEK-293T) (PSI 1-6); higher = more stable. The following applies: c terminus: a fixed tail appended.
Take SLGKQKVFIIRKSILDELMEVQHF: the protein stability index is 3.27.

Regarding SLGKQKVFIIRKSDLDELMEVQHF, the protein stability index turned out to be 2.19. Take SLGKQKVFIIRKSALDELMEVQHF: the protein stability index stood at 2.72. The figure for SLGKQKVFIIRKSELDELMEVQHF is 2; for SLGKQKVFIIRKSLLDELMIVQHF it is 2.03; for SLGKQKVFIIRKSLLDELMPVQHF it is 1.45. In the case of SLGKQKVFIIRKSLLDELMKVQHF, the protein stability index was 2.57. The same measure for SLGKQKVFIIRKSLLDELMNVQHF: 3.04; for SLGKQKVFIIRKSLLDELMDVQHF: 1.63. SLGKQKVFIIRKSLLDELMSVQHF: the protein stability index stood at 2.48. With SLGKQKVFIIRKSLLDILMEVQHF, the protein stability index was found to be 2.86. As to SLGKQKVFIIRKSLLDVLMEVQHF, the protein stability index was 3.36.

With SLGKQKVFIIRKSLLDYLMEVQHF, the protein stability index came out at 1.85.

Consider SLGKQKVFIIRKSLLDRLMEVQHF, for which the protein stability index came out at 2.41. The same measure for SLGKQKVFIIRKSLLDWLMEVQHF: 3.08; for SLGKQKVFIIRKSLLDCLMEVQHF: 3.21.

SLGKQKVFIIRKSLLDEMMEVQHF: the protein stability index was determined as 1.7. The figure for SLGKQKVFIIRKSLLDEKMEVQHF is 2.11; for SLGKQKVFIIRKSLLDEPMEVQHF it is 1.38; for SLGKQKVFIIRKSLLDETMEVQHF it is 1.31. The same measure for SLGKQKVFIIRKSLLDEFMEVQHF: 1.41; for SLGKQKVFIIRKSLLDERMEVQHF: 1.98; for SLGKQKVFIIRKSLLDEAMEVQHF: 1.46.

With SLGKQKVFIIRKSLLDEGMEVQHF, the protein stability index turned out to be 2.62. SAGKQKVFIIRKSLLDELMEVQHF: the protein stability index amounted to 2.94. Regarding SVGKQKVFIIRKSLLDELMEVQHF, the protein stability index stood at 3.51.

In the case of SMGKQKVFIIRKSLLDELMEVQHF, the protein stability index is 2.25.

For SSGKQKVFIIRKSLLDELMEVQHF, the protein stability index came to 3.5. Take STGKQKVFIIRKSLLDELMEVQHF: the protein stability index was determined as 3.3. The figure for SFGKQKVFIIRKSLLDELMEVQHF is 3.72; for SLGKQKVFIIRKSLLDELMEVQVF it is 3.33. As to SLGKQKVFIIRKSLLDELMEVQGF, the protein stability index was determined as 1.86. The figure for SLGKQKVFIIRKSLLDELMEVQFF is 1.87; for SLGKQKVFIIRKSLLDELMEVQEF it is 1.9. The figure for SLGKQKVFIIRKSLLDELMEVQSF is 1.79.

For SLGKQKVFIIRKSLLDELMEVQCF, the protein stability index turned out to be 2.69.

Consider SLGKQKVFIIRKSLLDELMEVQTF, for which the protein stability index was determined as 2.07. The same measure for SLGKQKVFIIRKSLLDELMEVQIF: 2.72; for SLGKQKVFIIRKSLLDELMEVQQF: 2.31; for SLGKQKVFIIRKSLLDELMEVQNF: 2.52. The same measure for SLGKQKVFIIRKSLLDELMEVQKF: 1.41; for SLGKQKVFIIRKSLLDELMEVSHF: 1.68; for SLGKQKVFIIRKSLLDELMEVRHF: 3.46. The same measure for SLGKQKVFIIRKSLLDELMEVGHF: 3.24. Consider SLGKQKVFIIRKSLLDELMEVDHF, for which the protein stability index was found to be 1.91. As to SLGKQKVFIIRKSLLDELMEVVHF, the protein stability index was found to be 1.49. For the variant SLGKQKVFIIRKSLLDELMEVTHF, the protein stability index came out at 3.05. The same measure for SLGKQKVFIIRKSLLDELMEVNHF: 2.22; for SLGKQKVFIIRKSLLDELMEVKHF: 2.35; for SLWKQKVFIIRKSLLDELMEVQHF: 2.5.

Consider SLDKQKVFIIRKSLLDELMEVQHF, for which the protein stability index was 2.12. The figure for SLSKQKVFIIRKSLLDELMEVQHF is 2.73. The figure for SLVKQKVFIIRKSLLDELMEVQHF is 2.97; for SLGRQKVFIIRKSLLDELMEVQHF it is 2.29; for SLGVQKVFIIRKSLLDELMEVQHF it is 2.8. The figure for SLGYQKVFIIRKSLLDELMEVQHF is 2.8; for SLGFQKVFIIRKSLLDELMEVQHF it is 2.22; for SLGWQKVFIIRKSLLDELMEVQHF it is 2.19. For the variant SLGHQKVFIIRKSLLDELMEVQHF, the protein stability index was 2.31. Take SLGKQKDFIIRKSLLDELMEVQHF: the protein stability index amounted to 1.48.

Regarding SLGKQKPFIIRKSLLDELMEVQHF, the protein stability index worked out at 1.49. The same measure for SLGKQKWFIIRKSLLDELMEVQHF: 2.34.

For SLGKQKTFIIRKSLLDELMEVQHF, the protein stability index was 2.16. As for SLGKQKGFIIRKSLLDELMEVQHF, the protein stability index came to 1.82.

For SLGKQKCFIIRKSLLDELMEVQHF, the protein stability index worked out at 2.4.

For the variant SLGKQKEFIIRKSLLDELMEVQHF, the protein stability index turned out to be 1.67. The figure for SLGKQKAFIIRKSLLDELMEVQHF is 1.72. SLGKQKVCIIRKSLLDELMEVQHF: the protein stability index came out at 2.49. As to SLGKQKVLIIRKSLLDELMEVQHF, the protein stability index is 2.02. The figure for SLGKQKVKIIRKSLLDELMEVQHF is 1.88. Consider SLGKQKVYIIRKSLLDELMEVQHF, for which the protein stability index amounted to 3.07.

As to SLGKQKVRIIRKSLLDELMEVQHF, the protein stability index was found to be 2.36.

Regarding SLGKQKVVIIRKSLLDELMEVQHF, the protein stability index was 1.6. On to SLGKQKVFIIRKSLVDELMEVQHF, for which the protein stability index amounted to 1.78. The same measure for SLGKQKVFIIRKSLCDELMEVQHF: 2.08. As for SLGKQKVFIIRKSLMDELMEVQHF, the protein stability index is 2.37. Consider SLGKQKVFIIRKSLIDELMEVQHF, for which the protein stability index stood at 2.35. Regarding SLGKQKVFIIRKSLQDELMEVQHF, the protein stability index turned out to be 1.8. The figure for SLGKQKVFIIRKSLGDELMEVQHF is 2.5; for SLGKQKVFIIRKSLDDELMEVQHF it is 2.38.

Take SLGKQKVFIIRKSLLRELMEVQHF: the protein stability index turned out to be 4.61. As for SLGKQKVFIIRKSLLQELMEVQHF, the protein stability index is 2.44. The figure for SLGKQKVFIIRKSLLLELMEVQHF is 3.27. The figure for SLGKQKVFIIRKSLLHELMEVQHF is 2.86.
